US20260098064A1 (PENN STATE RESEARCH FOUNDATION, published 2026)

Key:
[1] = size exclusion chromatography; 20 µM LanM_012 with 4.0 equiv. Dy^III; details: 20 µM protein, 5% glycerol, pH 7.0
[2] = size exclusion chromatography; 20 µM LanM_012 with 4.0 equiv. La^III; details: 20 µM protein, 5% glycerol, pH 7.0
[3] = biological target: the molecule itself; test: S75 gel filtration during purification, no Ca(II) included; self-association
Description: The procedures used for expression in E. coli and purification of LanM_013 were identical to those used for Mex-LanM, except that no Ca(II) was included in the gel filtration step. […] The elution volume of the protein from the S75 column was consistent with a monomer. The purification yielded 80 mg LanM_013 from 2 L culture (40 mg/L).

[4] = biological target: the molecule itself; test: SEC-MALS of apo, Ca^II, La^III, Nd^III and Dy^III Mex-LanM (Table 17); self-association
Description: In-line size-exclusion chromatography and multi-angle light scattering (SEC-MALS). SEC-MALS experiments were conducted using an Agilent 1260 Infinity II HPLC system equipped with an autosampler and fraction collector, and the Wyatt SEC hydrophilic column had 5 μm silica beads, a pore size of 100 Å, and dimensions of 7.8×300 mm. Wyatt Technology DAWN MALS and Wyatt Optilab Refractive Index (RI) detectors were used for analyzing the molar mass of peaks that eluted from the column. The SEC-MALS system was equilibrated for 5 h with Buffer B. The system was calibrated with bovine serum albumin (BSA, monomer MW: 66 kDa) in the same buffer and normalization and alignment of the MALS and RI detectors were carried out. A volume of 15 μL of each sample was injected at a flow rate of 0.8 mL/min with a chromatogram run time of 25 min. Data were analyzed using the ASTRA software (Wyatt). When SAXS analysis was desired, a second run was performed with 150 μL protein (˜4 mg/mL) injected, and 200 μL fractions of the main peak were collected. BioSAXS data were subsequently collected in triplicate.
Table 17. Characterization of Hans- and Mex-LanM metal complexes using SEC-MALS. The concentrations of the protein samples loaded to the column were: 1.2-1.5 mg/mL for apo- and RE-bound Hans-LanM, 3 mg/mL for Ca^II-bound Hans-LanM, and 3 mg/mL for Mex-LanM. […]

[5] = biological target: the molecule itself; test: ITC, dimer dissociation model, buffer with 5% glycerol; Dy-bound wt Hans-LanM
Description: (§1) Isothermal titration calorimetry. The dissociation constants for the dimers of apo, La^III-bound, and Dy^III-bound Hans-LanM were determined by dilutive additions of a concentrated protein stock, followed using ITC on a TA Instruments Low-volume Auto Affinity ITC. The syringe contained 300 μM protein (apo or 2 equiv. Dy^III bound) or 150 μM or 540 μM (2 equiv. La^III bound), and the cell contained 185 μL of a matched buffer (30 mM MOPS, 100 mM KCl, pH 7.0). Titrations were carried out at 30° C. Titrations consisted of a first 0.2 μL injection followed by 17×2 μL injections, unless otherwise noted, with stirring at 125 rpm and 180 s equilibration time between injections. The heats were fitted using NanoAnalyze using the “Dimer Dissociation” model, yielding the dimer dissociation constant (Kdimer), enthalpy of dissociation (ΔH), and entropy of dissociation (ΔS).
(§2) Table 21. Thermodynamics parameters for WT and R100K Hans-LanM, obtained by fitting ITC thermograms to the dimer dissociation model. These experiments were carried out similarly to those shown in Table 18, except that 5% glycerol was present in the buffer.

[6] = biological target: the molecule itself; test: ITC, dimer dissociation model, 5% glycerol; Dy-bound wt Hans-LanM; unit not printed (Table 18: kcal/mol)
Description: as §1, §2

[7] = biological target: the molecule itself; test: ITC dilution of 300 µM protein, dimer dissociation model (Kdimer); Hans-LanM with 2 equiv. Dy^III; 30 mM MOPS, 100 mM KCl, pH 7.0, 30 C
Description: as §1

[8] = analytical SEC (Superdex S75); Hans-LanM with 3.0 equiv. Tb^III
[9] = analytical SEC (Superdex S75); Hans-LanM with 3.0 equiv. Gd^III
[10] = biological target: the molecule itself; test: ITC, dimer dissociation model; Dy^III-bound Hans-LanM
Description: as §1

[11] = analytical SEC (Superdex S75); Hans-LanM with 3.0 equiv. Ho^III
[12] = biological target: the molecule itself; test: ITC, dimer dissociation model, 5% glycerol; Dy-bound wt Hans-LanM; unit not printed (Table 18: cal/mol/K)
Description: as §1, §2

[13] = analytical SEC (Superdex S75); Hans-LanM with 3.0 equiv. Sm^III
[14] = biological target: the molecule itself; test: ITC, dimer dissociation model; apo Hans-LanM
Description: as §1

[15] = biological target: the molecule itself; test: La^III-bound Hans-LanM; no monomerization seen by ITC; upper limit estimated from SEC-MALS peak concentration (FIG. 12)
Description: (§3) To provide further support for preferential dimerization in the presence of physiologically relevant LREs, RE complexes of Hans-LanM were analyzed using multi-angle light scattering (MALS) (FIG. 2a, FIG. 9). The La^III, Nd^III, and Gd^III complexes have MWs of 22-25 kDa, indicative of dimers, but MWs decrease starting with Tb^III and continue to Dy^III and Ho^III, at ˜15 kDa (Table 17), in agreement with the SEC data. Ca^II-bound Hans-LanM also indicated a MW of 14.7 kDa. […] The Kd for dimerization (Kdimer) of apo-, La^III-bound, and Dy^III-bound Hans-LanM was determined by isothermal titration calorimetry (ITC) (FIG. 10-12, Table 18). […] Thus, La^III favors Hans-LanM's dimerization by >100-fold over Dy^III.
(§4) Isothermal titration calorimetry. The dissociation constants for the dimers of apo, La^III-bound, and Dy^III-bound Hans-LanM were determined by dilutive additions of a concentrated protein stock, followed using ITC on a TA Instruments Low-volume Auto Affinity ITC. The syringe contained 300 μM protein (apo or 2 equiv. Dy^III bound) or 150 μM or 540 μM (2 equiv. La^III bound), and the cell contained 185 μL of a matched buffer (30 mM MOPS, 100 mM KCl, pH 7.0). Titrations were carried out at 30° C. Titrations consisted of a first 0.2 μL injection followed by 17×2 μL injections, unless otherwise noted, with stirring at 125 rpm and 180 s equilibration time between injections. […]

[16] = analytical SEC (Superdex S75); Hans-LanM with 3.0 equiv. Dy^III
[17] = analytical SEC (Superdex S75); Hans-LanM with 3.0 equiv. Eu^III
[18] = analytical SEC (Superdex S75); Hans-LanM (590 µM) with 3.0 equiv. La^III
[19] = biological target: the molecule itself; test: ITC and SEC-MALS estimate; La^III-bound against Dy^III-bound Hans-LanM
Description: as §3, §4

[20] = biological target: the molecule itself; test: ITC, dimer dissociation model, buffer with 5% glycerol; apo wt Hans-LanM
Description: as §1, §2

[21] = biological target: the molecule itself; test: ITC dilution of 300 µM protein, dimer dissociation model (Kdimer); apo Hans-LanM; 30 mM MOPS, 100 mM KCl, pH 7.0, 30 C
Description: as §1

[22] = analytical SEC (Superdex S75); Hans-LanM with 3.0 equiv. Nd^III
[23] = biological target: the molecule itself; test: ITC, dimer dissociation model, 5% glycerol; apo wt Hans-LanM; unit not printed (Table 18: kcal/mol)
Description: as §1, §2

[24] = biological target: the molecule itself; test: ITC, dimer dissociation model, 5% glycerol; apo wt Hans-LanM; unit not printed (Table 18: cal/mol/K)
Description: as §1, §2

[25] = biological target: the molecule itself; test: ITC, dimer dissociation model, 5% glycerol; apo R100K-Hans-LanM; unit not printed (Table 18: kcal/mol)
Description: as §1, §2

[26] = biological target: the molecule itself; test: ITC, dimer dissociation model, 5% glycerol; Dy-bound R100K-Hans-LanM; unit not printed (Table 18: kcal/mol)
Description: as §1, §2

[27] = biological target: the molecule itself; test: ITC, dimer dissociation model, 5% glycerol; La-bound R100K-Hans-LanM; unit not printed (Table 18: cal/mol/K)
Description: as §1, §2

[28] = biological target: the molecule itself; test: ITC, dimer dissociation model, 5% glycerol; La-bound R100K-Hans-LanM; unit not printed (Table 18: kcal/mol); ITC dimer dissociation model, 5% glycerol; La-bound R100K
Description: as §1, §2

[29] = biological target: the molecule itself; test: ITC, dimer dissociation model, 5% glycerol; Dy-bound R100K-Hans-LanM; unit not printed (Table 18: cal/mol/K)
Description: as §1, §2

[30] = biological target: the molecule itself; test: ITC, dimer dissociation model, 5% glycerol; apo R100K-Hans-LanM; unit not printed (Table 18: kcal/mol); ITC dimer dissociation model, 5% glycerol; apo R100K
Description: as §1, §2

[31] = biological target: the molecule itself; test: ITC, dimer dissociation model, 5% glycerol; apo R100K-Hans-LanM; unit not printed (Table 18: cal/mol/K)
Description: as §1, §2

[32] = biological target: the molecule itself; test: ITC, dimer dissociation model, buffer with 5% glycerol; apo R100K-Hans-LanM; ITC dimer dissociation model, 5% glycerol; apo R100K
Description: as §1, §2

[33] = biological target: the molecule itself; test: ITC, dimer dissociation model, 5% glycerol; La-bound R100K-Hans-LanM; unit not printed (Table 18: kcal/mol)
Description: as §1, §2

[34] = biological target: the molecule itself; test: ITC, dimer dissociation model, buffer with 5% glycerol; La-bound R100K-Hans-LanM; ITC dimer dissociation model, 5% glycerol; La-bound R100K
Description: as §1, §2

[35] = biological target: the molecule itself; test: ITC, dimer dissociation model, 5% glycerol; Dy-bound R100K-Hans-LanM; unit not printed (Table 18: kcal/mol); ITC dimer dissociation model, 5% glycerol; Dy-bound R100K
Description: as §1, §2

[36] = biological target: the molecule itself; test: ITC, dimer dissociation model, buffer with 5% glycerol; Dy-bound R100K-Hans-LanM; ITC dimer dissociation model, 5% glycerol; Dy-bound R100K
Description: as §1, §2

B1: LanM_012 (Xanthobacter flavus LanM, with signal peptide removed) (protein)
chain: MLTGKEFLRKYNKDKDSTVEIVEAIDLGTKVFKAINPDKDKTLEAAETKGRLSDEDWAQFNKDGDKTLELDEWLIIVRKRFNDADANKDGKLTEAELDAPAGQQLILLIAK
For B1, the “apparent molecular weight (SEC)” value [1] was “an apparent molecular weight of ˜29.1 kDa” and the “apparent molecular weight (SEC)” value [2] was “an apparent molecular weight of ˜29.1 kDa”.

B2: LanM_013 (Methyloligella sp. GL2 LanM, expressed construct; signal peptide removed and N-terminal Met added) (other)
chain: MGKAADAIQALDPDKDGTIDLNEAKAGAKAVFEKINPDGDGTLEVKELKGRLTKKELDAADPDNDGTLDMQEYEAVVTKQFELANPDNDGTVDEKELKTKEGKKLLKLIY
notes: Monomer
B2: no binding [3].

B3: Mex-LanM (lanmodulin from Methylorubrum extorquens AM1) (other)
chain: APTTTTKVDIAAFDPDKDGTIDLKEALAAGSAAFDKLDPDKDGTLDAKELKGRVSEADLKKLDPDNDGTLDKKEYLAAVEAQFKAANPDNDGTIDARELASPAGSALVNLIR
notes: also called LanM_001; M. extorquens LanM
B3: no binding (tested: 3 mg/mL loaded) [4].

B4: Hans-LanM (lanmodulin from Hansschlegelia quercus, wild type, lacking signal peptide, as expressed in this study) (other)
chain: ASGADALKALNKDNDDSLEIAEVIHAGATTFTAINPDGDTTLESGETKGRLTEKDWARANKDGDQTLEMDEWLKILRTRFKRADANKDGKLTAAELDSKAGQGVLVMIMK
notes: also called LanM_002; wt
In the case of B4, the Kd [5] is reported as 40 µM, the “ΔG of dimer dissociation” value [6] is reported as 6.1 kcal/mol and the “ΔH of dimer dissociation” value [6] is reported as -5 kcal/mol. For the same protein, the Kd [7] was 60 µM, the Apparent MW (SEC, kDa) [8] was 21.3 kDa and the Apparent MW (SEC, kDa) [9] was 23 kDa. The “ΔG of dimer dissociation” value [10] was 5.9 kcal/mol, the “ΔH of dimer dissociation” value [10] was -5.3 kcal/mol and the “ΔS of dimer dissociation” value [10] was -37 cal/mol/K. The Apparent MW (SEC, kDa) [11] was 17.9 kDa, the “ΔS of dimer dissociation” value [12] was -36 cal/mol/K and the Apparent MW (SEC, kDa) [13] was 26.1 kDa. The “ΔG of dimer dissociation” value [14] was 5.5 kcal/mol, the “ΔH of dimer dissociation” value [14] was 25.4 kcal/mol and the “ΔS of dimer dissociation” value [14] was 66 cal/mol/K. It also gave a Kd [15] of less than 0.4 µM, an Apparent MW (SEC, kDa) [16] of 20 kDa and an Apparent MW (SEC, kDa) [17] of 25.5 kDa. The Apparent MW (SEC, kDa) [18] was 27.8 kDa, the “fold enhancement of dimerization, La^III versus Dy^III” value [19] was 100 fold and the Kd [20] was 100 µM. The Kd [21] was 117 µM, the Apparent MW (SEC, kDa) [22] was 27.8 kDa and the “ΔG of dimer dissociation” value [23] was 6.3 kcal/mol. The “ΔH of dimer dissociation” value [23] was 24 kcal/mol and the “ΔS of dimer dissociation” value [24] was 61 cal/mol/K.

B5: R100K-Hans-LanM (other)
chain: ASGADALKALNKDNDDSLEIAEVIHAGATTFTAINPDGDTTLESGETKGRLTEKDWARANKDGDQTLEMDEWLKILKTRFKRADANKDGKLTAAELDSKAGQGVLVMIMK
notes: Monomer; also called Hans-LanM(R100K); R100K variant
For B5, the “ΔG of dimer dissociation” value [25] was 6 kcal/mol, the “ΔG of dimer dissociation” value [26] was 5.9 kcal/mol and the “ΔS of dimer dissociation” value [27] was -84 cal/mol/K. For the same protein, the “ΔH of dimer dissociation” value [28] was -19 kcal/mol, the “ΔS of dimer dissociation” value [29] was -73 cal/mol/K and the “ΔH of dimer dissociation” value [30] was 16 kcal/mol. For the same protein, the “ΔS of dimer dissociation” value [31] was 37 cal/mol/K, the Kd [32] was 82 µM and the “ΔG of dimer dissociation” value [33] was 7 kcal/mol. The Kd [34] was 14 µM, the “ΔH of dimer dissociation” value [35] was -16 kcal/mol and the Kd [36] was 54 µM.
